In paper PMC9536601 one finds Kd, koff and kon data, which are given here for four substances.

Assay [1] concerns the target chimeric hexon of Ad5:H1.2 (Ad5 vector, hexon residues 112-593 from Ad1 hexon, HVR7 IGVTRTY), on the virion (human adenovirus type 5 | human adenovirus type 1) (UniProt P04133). Put plainly: SPR; Biacore T200; about 300 to 5,000 RU of Ad virions immobilised on a CM5 chip, coagulation factors flowed over at four concentrations, 50 uL/min; 10 mM HEPES, 150 mM NaCl, 1 mM CaCl2, 0.5 mM MgCl2, 0.1% BSA, 0.05% polysorbate 20, pH 7.4; global fit to a 1:1 kinetic interaction model, double referencing.

The target in assay [2] is chimeric hexon of Ad5:H57.1 (Ad5 vector, hexon residues 112-593 from Ad57 hexon), on the virion (human adenovirus type 5 | human adenovirus type 57) (UniProt P04133). The description is as above.
The target of assay [3] is chimeric hexon of Ad5:H6.1 (Ad5 vector, hexon residues 112-593 from Ad6 hexon), on the virion (human adenovirus type 5 | human adenovirus type 6) (UniProt P04133). The assay is described as above.
Assay [4] has as its target chimeric hexon of Ad5:H6.2 (Ad5 vector, hexon residues 112-593 from Ad6 hexon, HVR7 IGNTDTF), on the virion (human adenovirus type 5 | human adenovirus type 6) (UniProt P04133). The assay is described as above.
For assay [5], the target named is chimeric hexon of Ad5:H6.4 (Ad5 vector, hexon residues 112-593 from Ad6 hexon, HVR7 IGITDAF), on the virion (human adenovirus type 5 | human adenovirus type 6) (UniProt P04133). The assay is described as above.
Assay [6] deals with hexon of Ad5.10 (Ad5 vector, hexon HVR1 replaced with the HVR1 of Ad6 hexon), on the virion (human adenovirus type 5) (UniProt P04133). The description is as above.
Assay [7] concerns the target chimeric hexon of the Ad5 vector Ad5:H1.6 (Ad1 hexon section with HVR7 mutations, on virions) (human adenovirus 5 | human adenovirus 1) (UniProt P04133). Put plainly: SPR; Biacore T200; about 300 to 5,000 RU of Ad virions immobilised on a CM5 chip, coagulation factors flowed over at four concentrations, 50 uL/min; running buffer 10 mM HEPES, 150 mM NaCl, 1 mM CaCl2, 0.5 mM MgCl2, 0.1% BSA, 0.05% polysorbate 20, pH 7.4; regeneration with 3 mM EDTA; global fit to a 1:1 kinetic interaction model, double referencing. On the technique in general: In SPR one partner is held on a chip, and binding of the other changes the refractive index at the surface.

For assay [8], the target named is chimeric hexon of the Ad5 vector Ad5:H6.2 (Ad6 hexon section with HVR7 mutations, on virions) (human adenovirus 5 | human adenovirus 6) (UniProt P04133). The assay is described as above.
Assay [9] addresses chimeric hexon of the Ad5 vector Ad5:H6.3 (Ad6 hexon section with HVR7 mutations, on virions) (human adenovirus 5 | human adenovirus 6) (UniProt P04133). Described as above.
For assay [10], the target named is chimeric hexon of the Ad5 vector Ad5:H6.4 (Ad6 hexon section with HVR7 mutations, on virions) (human adenovirus 5 | human adenovirus 6) (UniProt P04133). Described as above.

In the case of “mouse prothrombin (coagulation factor II) (from UniProt P19221 44-618) (natural protein)”, the Kd in [1] was 1300 nM; in [2], 10 nM; in assay [3], 8.6 nM; in [4], 560 nM; in assay [5], 32000 nM; in assay [6], 356 nM. In addition, the Kd in assay [8] is 560 nM; in [9], 1600 nM; in [10] it was 32000 nM. The koff in assay [7] came out at 1.41 s⁻¹; in [8], 0.012 s⁻¹; in assay [9], 0.0304 s⁻¹; in [10], 0.563 s⁻¹. In addition, the kon in [8] came to 21300 M⁻¹ s⁻¹; in assay [9], 19700 M⁻¹ s⁻¹; in assay [10], 17800 M⁻¹ s⁻¹.
With “human coagulation factor X (from UniProt P00742 41-488) (natural protein)”, the Kd turned out to be 650 nM in assay [1], 58 nM in assay [2], 43 nM in assay [3] and 1.1 nM in assay [6].
For “bovine coagulation factor X (from UniProt P00743 41-492) (natural protein)” the same measures were 1100 nM, 28 nM, 97 nM and 276 nM.
“mouse coagulation factor X (from UniProt O88947 41-481) (natural protein)”: the Kd was 5 nM in assay [1]; 0.65 nM in [2]; 0.31 nM in assay [3]; 681 nM in assay [4]; 95 nM in [5]; 0.58 nM in assay [6]. The Kd in [7] came to 4200 nM; in assay [8] it was 681 nM; in assay [9] it was 1200 nM; in assay [10], 95 nM. Further, the koff in assay [7] was determined as 0.638 s⁻¹; in [8], 0.121 s⁻¹; in assay [9], 0.26 s⁻¹; in assay [10] it was 0.0169 s⁻¹. Also, the kon in assay [7] turned out to be 152000 M⁻¹ s⁻¹; in assay [8], 178000 M⁻¹ s⁻¹; in assay [9] it was 214000 M⁻¹ s⁻¹; in assay [10] it was 178000 M⁻¹ s⁻¹.

What is called Kd is a measure of binding affinity in units of concentration. Read a low Kd as tighter binding. The koff is the first-order rate constant of dissociation. In general, kon refers to the rate constant with which the complex forms. A high value points to faster complex formation.
